Columns and labels:
SFB-RNF40 (baculovirus) = SFB-RNF40 (baculovirus) (human, UniProt O75150 1-1001); assay: pull-down + SEC
SBP-RNF20 (baculovirus) = SBP-RNF20 (baculovirus) (human, UniProt Q5VTR2 1-975); assay: pull-down + SEC
Sequence of SBP-RNF20 (baculovirus) (Q5VTR2 whole entry): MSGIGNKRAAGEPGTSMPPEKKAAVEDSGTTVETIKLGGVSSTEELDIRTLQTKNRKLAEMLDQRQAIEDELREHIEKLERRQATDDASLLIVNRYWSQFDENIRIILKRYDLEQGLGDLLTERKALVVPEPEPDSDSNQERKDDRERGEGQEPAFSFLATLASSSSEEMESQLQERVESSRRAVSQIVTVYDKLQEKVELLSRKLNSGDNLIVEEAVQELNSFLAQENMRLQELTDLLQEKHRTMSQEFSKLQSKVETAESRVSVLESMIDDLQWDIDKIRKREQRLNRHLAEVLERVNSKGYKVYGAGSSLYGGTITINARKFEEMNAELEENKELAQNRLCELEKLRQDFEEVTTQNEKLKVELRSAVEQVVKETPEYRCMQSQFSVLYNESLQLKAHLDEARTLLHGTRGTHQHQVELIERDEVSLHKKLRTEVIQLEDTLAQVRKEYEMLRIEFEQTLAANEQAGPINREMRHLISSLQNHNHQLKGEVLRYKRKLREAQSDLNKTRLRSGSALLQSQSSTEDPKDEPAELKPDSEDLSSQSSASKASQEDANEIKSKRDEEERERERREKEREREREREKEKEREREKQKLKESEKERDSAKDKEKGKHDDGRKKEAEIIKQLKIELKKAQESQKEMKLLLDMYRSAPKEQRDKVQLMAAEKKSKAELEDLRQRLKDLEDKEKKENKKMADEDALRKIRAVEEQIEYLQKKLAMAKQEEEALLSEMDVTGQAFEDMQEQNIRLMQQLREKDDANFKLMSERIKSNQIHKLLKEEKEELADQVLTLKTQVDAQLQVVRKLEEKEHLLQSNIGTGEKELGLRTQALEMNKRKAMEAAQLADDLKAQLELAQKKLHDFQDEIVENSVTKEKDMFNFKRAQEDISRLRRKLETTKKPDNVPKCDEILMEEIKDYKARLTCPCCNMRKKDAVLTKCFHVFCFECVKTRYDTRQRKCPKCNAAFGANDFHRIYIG

Sequence of SFB-RNF40 (baculovirus) (O75150 whole entry): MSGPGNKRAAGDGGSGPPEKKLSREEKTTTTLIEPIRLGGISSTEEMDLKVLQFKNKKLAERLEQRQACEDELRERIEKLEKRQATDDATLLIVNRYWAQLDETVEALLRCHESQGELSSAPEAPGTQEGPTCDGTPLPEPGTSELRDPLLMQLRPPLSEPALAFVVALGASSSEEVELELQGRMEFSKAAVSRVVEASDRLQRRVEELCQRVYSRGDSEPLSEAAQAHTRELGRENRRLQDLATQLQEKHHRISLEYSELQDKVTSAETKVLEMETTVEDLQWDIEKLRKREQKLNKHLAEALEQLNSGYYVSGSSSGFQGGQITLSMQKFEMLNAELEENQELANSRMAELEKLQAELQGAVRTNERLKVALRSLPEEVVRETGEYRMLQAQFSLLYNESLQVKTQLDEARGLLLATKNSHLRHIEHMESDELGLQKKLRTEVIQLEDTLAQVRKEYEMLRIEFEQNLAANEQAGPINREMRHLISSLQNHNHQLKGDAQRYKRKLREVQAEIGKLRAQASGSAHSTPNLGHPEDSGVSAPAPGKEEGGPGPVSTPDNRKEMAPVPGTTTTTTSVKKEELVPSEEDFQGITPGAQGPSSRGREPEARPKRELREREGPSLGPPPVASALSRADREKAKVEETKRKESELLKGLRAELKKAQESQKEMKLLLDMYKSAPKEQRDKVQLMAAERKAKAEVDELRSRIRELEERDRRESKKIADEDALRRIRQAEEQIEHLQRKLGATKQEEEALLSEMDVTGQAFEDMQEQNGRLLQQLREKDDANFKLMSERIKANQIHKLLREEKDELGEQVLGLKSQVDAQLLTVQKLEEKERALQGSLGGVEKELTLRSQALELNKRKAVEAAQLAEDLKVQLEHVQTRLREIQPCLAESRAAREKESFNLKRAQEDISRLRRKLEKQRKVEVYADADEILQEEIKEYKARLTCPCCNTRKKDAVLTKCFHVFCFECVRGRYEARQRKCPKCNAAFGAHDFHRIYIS

B1: untagged WAC (baculovirus) (natural protein, UniProt Q9BTA9 1-647, looked up)
chain: MVMYARKQQRLSDGCHDRRGDSQPYQALKYSSKSHPSSGDHRHEKMRDAGDPSPPNKMLRRSDSPENKYSDSTGHSKAKNVHTHRVRERDGGTSYSPQENSHNHSALHSSNSHSSNPSNNPSKTSDAPYDSADDWSEHISSSGKKYYYNCRTEVSQWEKPKEWLEREQRQKEANKMAVNSFPKDRDYRREVMQATATSGFASGMEDKHSSDASSLLPQNILSQTSRHNDRDYRLPRAETHSSSTPVQHPIKPVVHPTATPSTVPSSPFTLQSDHQPKKSFDANGASTLSKLPTPTSSVPAQKTERKESTSGDKPVSHSCTTPSTSSASGLNPTSAPPTSASAVPVSPVPQSPIPPLLQDPNLLRQLLPALQATLQLNNSNVDISKINEVLTAAVTQASLQSIIHKFLTAGPSAFNITSLISQAAQLSTQAQPSNQSPMSLTSDASSPRSYVSPRISTPQTNTVPIKPLISTPPVSSQPKVSTPVVKQGPVSQSATQQPVTADKQQGHEPVSPRSLQRSSSQRSPSPGPNHTSNSSNASNATVVPQNSSARSTCSLTPALAAHFSENLIKHVQGWPADHAEKQASRLREEAHNMGTIHMSEICTELKNLRSLVRVCEIQATLREQRILFLRQQIKELEKLKNQNSFMV
For B1, the “stoichiometry N” value (SFB-RNF40 (baculovirus)) was ~1 WAC per RNF40 (2:2) and the “stoichiometry N” value (SBP-RNF20 (baculovirus)) was ~1 WAC per RNF20 (2:2).

— PMC3062166 (Molecular cell, 2011)
